From US11839630B2, “CAR-T cells targeting IL-1RAP and their use” (ETABLISSEMENT FRANCAIS DU SANG, priority 2017, dated 2023)
Several values for one entry are separate records, joined by “and”; a condition that tells them apart may be missing. Equal entries are not always repeated.

Experiments:
[1] = target: T1, IL-1RAP (Homo sapiens, UniProt Q9NPH3); experiment: Confocal microscopy on KU812 and Raji cell lines; format: binding; settings: KU812 cells
T1 sequence (Q9NPH3 21-570): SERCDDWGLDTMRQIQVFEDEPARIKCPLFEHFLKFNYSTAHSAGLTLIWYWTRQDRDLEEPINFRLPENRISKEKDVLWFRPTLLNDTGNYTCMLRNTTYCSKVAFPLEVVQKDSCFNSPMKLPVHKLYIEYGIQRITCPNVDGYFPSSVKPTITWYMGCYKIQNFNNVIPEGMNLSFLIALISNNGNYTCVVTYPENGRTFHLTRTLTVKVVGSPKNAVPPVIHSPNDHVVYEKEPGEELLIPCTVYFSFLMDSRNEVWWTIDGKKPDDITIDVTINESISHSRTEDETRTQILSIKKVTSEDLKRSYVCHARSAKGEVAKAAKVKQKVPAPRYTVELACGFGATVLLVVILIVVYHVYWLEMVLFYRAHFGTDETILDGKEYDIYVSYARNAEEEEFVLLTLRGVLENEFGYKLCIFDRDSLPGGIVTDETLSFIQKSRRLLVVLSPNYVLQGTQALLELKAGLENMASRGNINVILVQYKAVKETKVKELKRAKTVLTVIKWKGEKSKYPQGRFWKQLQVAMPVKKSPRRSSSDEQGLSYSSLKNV
Experimental: FIG. 4: KU812 (a) and Raji cells lines (b) stained with Fluorescence mAbs [(left panel: anti murine Fc-IgG; medium panel: IL-1RAP (#E3C3)]. Counterstaining was performed by nuclear stain DAPI and superposed to Fluorescent staining (right panel, merge).
Confocal microscopy was assessed on KU812 and Raji cells lines concentrated on slides (Superfrost™ Plus, 4951PLUS4, ThermoFisher Scientific) by Cytospin. Briefly, the cells were stained with Fluorescent monoclonal antibodies: anti murine Fc-IgG; IL-1RAP (#E3C3) and were analyzed with an Olympus BX51 microscope equipped with a QImaging Retiga 2000R camera. Digital images were acquired using the 40× objective and digitalized with Image-Pro Plus (version 6.0, Media Cybernetics). Counterstaining was performed by nuclear stain DAPI (2-(4-Amidinophenyl)-6-indolecarbamidine dihydrochloride, Sigma-Aldrich-France) and superposed to fluorescent staining.

[2] = target: T1, IL-1RAP; experiment: Immunostaining of FDA standard frozen normal tissue array; format: binding; design: FDA standard frozen tissue arrays, including 90 tissue cores (30 organs) of 3 individual donors per organ; tissue US Biomax; host or cells: FDA standard frozen normal human tissue array (30 organs, 3 donors each); key to Staining intensity (0 to 3+): negative (0); weak staining (1+); moderate staining (2+); strong staining (3+); settings: for normal tissues in which staining was detected: 30 normal human tissues, 3 donors per organ
Excerpt: FIG. 22: (A) Tissue microarray. Representative #A3C3 staining of an US Food and Drug Administration standard frozen tissue array, including 90 tissue cores (30 organs) of 3 individual donors per organ (US Biomax, Rockville, MD, USA). Immunostaining was detected using the UltraView Universal DAB Detection Kit (Ventana, USA). Images were acquired and analyzed with NDP.view 2.0 software. […] (Scale bars, 100 μm.) High IL-1RAP (KU812)— or negative (Raji)-expressing cell lines were respectively used as positive or negative controls. (B) IL-1RAP R&D (red) or #A3C3 (blue) staining of HMEC-1 dermal endothelial cell line. Isotype IgG1 (gray) is depicted as overlay. RFI is provided for both staining.
In order to study specific or non-target tissue binding, FDA standard frozen tissue arrays, including 90 tissue cores (30 organs) of 3 individual donors per organ (US Biomax, Rockville, United States) were incubated as previously described. Immunostaining was detected using UltraView Universal DAB Detection Kit (Ventana, USA). Images were acquired and analyzed with NDP.view 2 software. High IL-1RAP (KU812) or negative (Raji) expressing cell lines were respectively used as positive or negative controls. The staining intensity was graduated as follows: negative (0), weak staining (1+), moderate staining (2+), or strong staining (3+). […]

B1: #E3C3: mouse anti-hIL-1RAP monoclonal antibody subclone generated by standard hybridoma technique; VH SEQ ID NO: 2, VL SEQ ID NO: 4 (antibody, V domains shown)
VH: MGWSCIILFLVATATGVNSQVQLQQPGAELMMPGASVKVSCEASGYTFTDSWMHWVKQRPGQGLEWIGAIDPSDSYTTYNQKFTGKATLSVDESSNTAYMQLSSLTSEDSAVYYCARYYSGSNYISPFPYWGQGTLVTVSA
VL: MESQIQVFVFVFLWLSGVDGDIVMTQSHKFMSTSVGDRVTITCKASLDVSTAVAWYQQKPGQSPKLLIYSASYRYTGVPDRFTGSGSGTDFTFTISSVQAEDLAVYYCQQHYSPPFTFGSGTNLEIK
modifications: Amino acid sequence of chain H (VH) of murine scFv anti-IL-1RAP; Amino acid sequence of chain K (VL) of murine scFv anti-IL-1RAP
**Q.** For B1, which “staining pattern by confocal microscopy” value [1] is on record?
**A.** cell membrane staining

**Q.** And the “normal tissues in which staining was detected” value [2]?
**A.** only 6 tissues as Lymph node, colon, small intestine, placenta, stomach and prostate

**Q.** What about the “normal tissues in which staining was detected” value ([2]; listed as #A3C3) of the same molecule?
**A.** only six tissues: lymph node, prostate, skeletal muscle, stomach, colon and small intestine, and pancreas

**Q.** And the “Staining intensity (0 to 3+)” value ([2]; Adrenal gland, replicates)?
**A.** 0

**Q.** What about the “Staining intensity (0 to 3+)” value ([2]; Cerebellum tissue, replicates) of the same molecule?
**A.** 0

**Q.** And the “Comments: epithelial cells stained” value ([2]; Colon)?
**A.** Epithelial cells (~30%);

**Q.** And the “Comments: inflammatory elements stained” value ([2]; Colon)?
**A.** inflammatory elements (100%)

**Q.** What about the “Staining intensity (0 to 3+)” value ([2]; Colon, replicates) of the same molecule?
**A.** 3+

**Q.** What about the “Staining intensity (0 to 3+)” value ([2]; Esophagus, replicates) of the same molecule?
**A.** 0

**Q.** And the “Staining intensity (0 to 3+)” value ([2]; Heart, replicates)?
**A.** 0

**Q.** What about the “Staining intensity (0 to 3+)” value ([2]; Kidney, replicates) of the same molecule?
**A.** 0

**Q.** And the “Staining intensity (0 to 3+)” value ([2]; Liver, replicates)?
**A.** 0

**Q.** What about the “Comments: stained elements” value ([2]; Lung) of the same molecule?
**A.** Few inflammatory elements

**Q.** And the “Staining intensity (0 to 3+)” value ([2]; Lung, replicates)?
**A.** 2+

**Q.** What about the “Comments: endothelial cells stained” value ([2]; Lymph node) of the same molecule?
**A.** ~30% of endothelial cells

**Q.** What about the “Staining intensity (0 to 3+)” value ([2]; Lymph node, replicates, listed as mAb#A3C3) of the same molecule?
**A.** 2+ and 1+

**Q.** And the “Staining intensity (0 to 3+)” value ([2]; Ovary, replicates)?
**A.** 0

**Q.** What about the “Staining intensity (0 to 3+)” value ([2]; Pancreas, replicates) of the same molecule?
**A.** 1+

**Q.** And the “Staining intensity (0 to 3+)” value ([2]; Peripheral nerve, replicates)?
**A.** 0

**Q.** And the “Staining intensity (0 to 3+)” value ([2]; Pituitary gland, replicates)?
**A.** 0

**Q.** And the “Comments: cytotrophoblast cells stained” value ([2]; Placenta)?
**A.** Cytotrophoblast cells (~10%)

**Q.** What about the “Staining intensity (0 to 3+)” value ([2]; Placenta, replicates) of the same molecule?
**A.** 0

**Q.** And the “Comments: endothelial cells stained” value ([2]; Prostate)?
**A.** ~10% of endothelial cells

**Q.** And the “Staining intensity (0 to 3+)” value ([2]; Prostate, replicates, listed as mAb#A3C3)?
**A.** 1+ (2×) and 0 (4×)

**Q.** And the “Staining intensity (0 to 3+)” value ([2]; Salivary gland, replicates)?
**A.** 0

**Q.** And the “Comments: endothelial cells stained” value ([2]; Skeletal muscle)?
**A.** ~10% of endothelial cells

**Q.** What about the “Staining intensity (0 to 3+)” value ([2]; Skeletal muscle, replicates (first listing), listed as mAb#A3C3) of the same molecule?
**A.** 1+ and 0 (2×)

**Q.** And the “Staining intensity (0 to 3+)” value ([2]; Skeletal muscle, replicates (second listing))?
**A.** 0

**Q.** What about the “Staining intensity (0 to 3+)” value ([2]; Skin, replicates) of the same molecule?
**A.** 0

**Q.** What about the “Comments: epithelial cells stained” value ([2]; Small intestine) of the same molecule?
**A.** Epithelial cells (~30%);

**Q.** And the “Comments: inflammatory elements stained” value ([2]; Small intestine)?
**A.** inflammatory elements (100%)

**Q.** And the “Staining intensity (0 to 3+)” value ([2]; Small intestine, replicates, listed as mAb#A3C3)?
**A.** 2+ and 0 and 1+

**Q.** What about the “Staining intensity (0 to 3+)” value ([2]; Smooth muscle, replicates) of the same molecule?
**A.** 0

**Q.** What about the “Staining intensity (0 to 3+)” value ([2]; Spinal cord, replicates) of the same molecule?
**A.** 0

**Q.** What about the “Comments: stained elements” value ([2]; Spleen) of the same molecule?
**A.** Necrotic elements

**Q.** And the “Staining intensity (0 to 3+)” value ([2]; Spleen, replicates)?
**A.** 3+

**Q.** And the “Comments: epithelial cells stained” value ([2]; Stomach)?
**A.** few epithelial cells <10%

**Q.** What about the “Comments: gastric mucosa cells stained” value ([2]; Stomach) of the same molecule?
**A.** Few gastric mucosa cells (~10%);

**Q.** What about the “Staining intensity (0 to 3+)” value ([2]; Stomach, replicates, listed as mAb#A3C3) of the same molecule?
**A.** 1+ and 0 (2×)

**Q.** What about the “Staining intensity (0 to 3+)” value ([2]; Testis, replicates) of the same molecule?
**A.** 0

**Q.** What about the “Staining intensity (0 to 3+)” value ([2]; Thyroid gland, replicates) of the same molecule?
**A.** 0

**Q.** What about the “Staining intensity (0 to 3+)” value ([2]; Ureter, replicates) of the same molecule?
**A.** 0

**Q.** What about the “Staining intensity (0 to 3+)” value ([2]; Uterine cervix, replicates) of the same molecule?
**A.** 0
